In patent publication US20230365703A1:
One block for each substance: values may come before it.

Legend:
[1] = biological target: human CD47-Fc chimeric protein (human) (UniProt Q08722); assay: SPR (Biacore T200), human CD47-Fc captured on anti-human IgG (Fc) CM5 chip, analyte 50 nM, bivalent analyte model
[2] = biological target: CD47 on CD47-transfected CHO-K1 cells (Homo sapiens (Human)) (UniProt Q08722); assay: flow cytometry on CD47-transfected CHO-K1 cells (CD38-/CD47+), anti-human IgG-FITC detection
[3] = biological target: IL12 receptors on H_IL12 Reporter 293 cells (UniProt P42701); assay: cell-based or functional assay
Sequence of IL12 receptors on H_IL12 Reporter 293 cells (Q99665 24-862 limits assumed, chain 2 of 2, other chains not shown): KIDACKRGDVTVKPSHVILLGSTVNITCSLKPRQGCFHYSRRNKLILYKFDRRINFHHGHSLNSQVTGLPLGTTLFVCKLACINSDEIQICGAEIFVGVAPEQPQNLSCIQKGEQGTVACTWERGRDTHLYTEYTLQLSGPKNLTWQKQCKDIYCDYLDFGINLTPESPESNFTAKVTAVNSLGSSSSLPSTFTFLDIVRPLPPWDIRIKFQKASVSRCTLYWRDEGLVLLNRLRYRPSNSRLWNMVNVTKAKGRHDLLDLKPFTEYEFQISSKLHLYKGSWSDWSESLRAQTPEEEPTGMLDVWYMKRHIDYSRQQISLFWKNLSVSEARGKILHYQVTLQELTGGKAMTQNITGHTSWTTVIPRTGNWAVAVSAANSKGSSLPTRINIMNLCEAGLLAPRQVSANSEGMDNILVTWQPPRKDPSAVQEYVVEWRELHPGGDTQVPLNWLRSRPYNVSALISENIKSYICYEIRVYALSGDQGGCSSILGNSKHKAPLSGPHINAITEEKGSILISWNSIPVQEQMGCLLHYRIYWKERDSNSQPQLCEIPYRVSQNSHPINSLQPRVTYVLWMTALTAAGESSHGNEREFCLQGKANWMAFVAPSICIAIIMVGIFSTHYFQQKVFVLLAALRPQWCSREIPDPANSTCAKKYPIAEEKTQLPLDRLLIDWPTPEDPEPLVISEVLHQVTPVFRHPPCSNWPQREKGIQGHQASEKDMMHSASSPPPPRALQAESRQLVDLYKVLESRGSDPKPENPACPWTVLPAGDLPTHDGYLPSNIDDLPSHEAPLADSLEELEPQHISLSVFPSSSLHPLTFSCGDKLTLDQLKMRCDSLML

[4] = biological target: GPC3 on liver cancer cells (HepG2, HuH-7) (UniProt P51654); assay: flow cytometry on HepG2 cells, Alexa Fluor 488 anti-human IgG; fit value of the flat control curve; unit inferred, unit taken from the axis Con.(nM)

- Kd [1]: 37.3 nM
- EC50 (read off the curve) [2]: 0.8 nM
Substance: TTI-621 (Fc fusion)

- EC50 on H IL12 Reporter 293 cells (One-Glo signal; called binding affinity by the filing) [3]: 0.06 nM
Substance: IL12A and IL12B complex (from UniProt P29459 23-219; P29460 24-328) (ligand)

- EC50 [4]: 3.4 nM
Substance: Human IgG1 homotype control (Isotype) (antibody)
